Data taken from the DeepSol protein solubility set.

Assay: soluble on expression in E. coli; label from the status in PepcDB or PDB records

| Sequence | soluble on expression in E. coli |
| --- | --- |
| MIQNDYSIYQYHVEFEPTVDSKATRENMLRQPSVTVEIGKHFVFDGMILYLKEEWDQNQMIEVQHPNDNSLICIRFKKTNRFLVDDPQTINIFNTIIRRSFDAMKLTQIGRNYFDWDNSRALRKELRSCQNNRQRVQEKMNEVYGGSTIITRYNNKLHRFTRLDNEITPLSKFQKDGEQIILKEYFKNQYDIDITDDEQFIIISEGKPKQPGEPPQVNYIVPELCFPTGLTDEMRKDFKMMKEIAKHTRMSPQQRLDETRKLITKLSQNQTMMECFQYWGISLGQDLANVQARVLKSEPLQGKRQYEGKQAEWARGVKECGIYRGSNMTNWIVIGPGSGNSGLLAQKFIAEARNLGRTLQVQLGEPMCVKINGISPNDYLEGLKAAIKSVDGEEIHMLVVMLADDNKTRYDSLKKYLCVECPIPNQCVNLRTLAGKSKDGGENKNLGSIVLKIVLQMICKTGGALWKVNIPLKSTMIVGYDLYHDSTLKGKTVGACVSTTSNDFTQFYSQTRPHENPTQLGNNLTHFVRKSLKQYYDNNDKTLPSRLILYRDGAGDGQIPYIKNTEVKLVRDACDAVTDKAAELSNKVQEKIKLAFIIVTKRVNMRILKQGSSSKSAINPQPGTVVDTTVTRPERMDFYLVPQFVNQGTVTPVSYNIIHDDTGLGPDKHQQLAFKLCHLYYNWQGTVRVPAPCQYAHKLAFLTAQSLHDDANGYLRDKLFFL | not soluble |
| MIRFLGNIEVRADAKGRVFIPATFRKQLQAASEERLIMRKDVFQDCLTLYPESVWNEELNELRSRLNKWNSKHQLIFRQFVSDVEVVTPDSNGRILIPKRYLQICNIRGDIRFIGIDNKIEIWAKERAEQPFMSPEEFGAALEEIMNDENRQDGER | not soluble |
| MIRKNKWLRFQTVCRYIPLSLKNHNRLVIFVCQRIEWRYIFSTNTGHPLKNTCEMTGTDFSTDGLMRRYVTGGNNQWHTVASLHMTIMMNRIGTVADRQPKARKVKHGEMTLEHHHHHH | not soluble |
| MIRLSEQSPLGTGRHRKCYAHPEDAQRCIKIVYHRGDGGDKEIRRELKYYAHLGRRLKDWSGIPRYHGTVETDCGTGYVYDVIADFDGKPSITLTEFAEQCRYEEDIAQLRQLLKQLKRYLQDNRIVTMSLKPQNILCHRISESEVIPVVCDNIGESTLIPLATWSKWCCLRKQERLWKRFIAQPALAIALQKDLQPRESKTLALTSREA | soluble |
| MIRLTELKLPLNHEEGALLDAIAAKLKIPAQQVLSFTLFRRGYDARKKSDIQLIYTVDVEVANPEKLLAKFSKDQHVRPTPDMSYKFVAKAPENLPERPLVIGFGPCGLFAGLVLAQMGFNPIIVERGKEVRERTKDTFGFWRKRTLNTESNVQFGEGGAGTFSDGKLYSQVKDPNFYGRKVITEFVEAGAPEEILYVSKPHIGTFKLVTMIEKMRAKIIELGGEIRFSTRVDDIHMQDGQITGVILSNGEEIQSRHVVLAVGHSARDTFEMLHARGVYMEAKPFSVGFRIEHKQSMIDEARFGPSAGHPILGAADYKLVHHCKNGRTVYSFCMCPGGTVVAATSEEGRVVTNGMSQYSRAERNANSAIVVGISPEQDYPGDPLAGIRLQRELETNAYKLGGETYDAPAQKIGDFLKGRNPSELGDVQPSFTPGIKLTDLSKALPAFAVEAIREAIPEFDRQIKGFASEDGLLTGVETRTSSPVCIKRGKDFQSINLKGFYPAGEGAGYAGGILSAGIDGIKVAEAVARDMMARFAGELEHHHHHH | soluble |
| MIRNKAFVVRLYPNAAQTELINRTLGSARFVYNHFLARRIAAYKESGKGLTYGQTSSELTLLKQAEETSWLSEVDKFALQNSLKNLETAYKNFFRTVKQSGKKVGFPRFRKKRTGESYRTQFTNNNIQIGEGRLKLPKLGWVKTKGQQDIQGKILNVTVRRIHEGHYEASVLCEVEIPYLPAAPKFAAGVDVGIKDFAIVTDGVRFKHEQNPKYYRSTLKRLRKAQQTLSRRKKGSARYGKAKTKLARIHKRIVNKRQDFLHKLTTSLVREYEIIGTEHLKPDNMRKNRRLALSISDAGWGEFIRQLEYKAAWYGRLVSKVSPYFPSSQLCHDCGFKNPEVKNLAVRTWTCPNCGETHDRDENAALNIRREALVAAGISDTLNAHGGYVRPASAGNGLRSENHATLVVLEHHHHHH | soluble |
| MIRTVMDFKFVLRLLEANQFENEVVEYKKNNKDFIVLGKNISALSNTAALLGIDKAYIIFGIEDGTLNIVGTNFKPKQEKKGNEELESWLHKVLKPNIEFKIHEITEKEIRLVVFEIEATKISPIKFEEKAYIRIGSNRKELDKYPEKEKKLWQVLSGFSFENEIAKSNLNIQDIYDLLDYSKCFDMLDISYDNYSSDEYIIEKLIEHGLVKNLNDSFAITNLGAILFAKDLTKFKGLNRKRIRFIRYQGKNKIHTLEELEGRKGYAIGFQGLISYIMQYVPKNEVIENAIRKDTTLYPEIAIRELVANAIIHQDFTINGRNPMIEMYSDRIEITNNGKSLIDIKRLIDMPSKSRNDKLANLMRIMGICEERGSGVDKVIDSVEAYQLPAPDFINNEDYFQAILFSHMPLEDMTKQDRIRATYQHCCLKWASREAMTNASLRARFKIGDKQHSKASKIISDTLEAGLIKQQDPENKSTKHVKYVPFFV | not soluble |
| MIRVASLIKAMSDTQLQIAQGASPLTGLPGNSAIEQEIKRRLNSGNAFGMIYADLNQFKAFNDTYGFQYGDSIIKLLGKILMQDSLKADDLAFVGHVGGDDFIILTTQNVTKTLGETILLSFQEQLSAMQGAQDLSLALAGLIIYPHTAWTPATLSERIAAVKREAKKAHCNYFLLRELEHHHHHH | not soluble |
| MISKGFSTQTERINILKAQILNAKPCVESERAILITESFKQTEGQPAILRRALALKHILENIPITIRDQELIVGSLTKEPRSSQVFPEFSNKWLQDELDRLNKRTGDAFQISEESKEKLKDVFEYWNGKTTSELATSYMTEETREAVNCDVFTVGNYYYNGVGHVSVDYGKVLRVGFNGIINEAKEQLEKNRSIDPDFIKKEKFLNSVIISCEAAITYVNRYAKKAKEIADNTSDAKRKAELNEIAKICSKVSGEGAKSFYEACQLFWFIHAIINIESNGHSISPARFDQYMYPYYENDKNITDKFAQELIDCIWIKLNDINKVRDEISTKHFGGYPMYQNLIVGGQNSEGKDATNKVSYMALEAAVHVKLPQPSLSVRIWNKTPDEFLLRAAELTREGLGLPAYYNDEVIIPALVSRGLTLEDARDYGIIGCVEPQKPGKTEGWHDSAFFNLARIVELTINSGFDKNKQIGPKTQNFEEMKSFDEFMKAYKAQMEYFVKHMCCADNCIDIAHAERAPLPFLSSMVDNCIGKGKSLQDGGAEYNFSGPQGVGVANIGDSLVAVKKIVFDENKITPSELKKTLNNDFKNSEEIQALLKNAPKFGNDIDEVDNLAREGALVYCREVNKYTNPRGGNFQPGLYPSSINVYFGSLTGATPDGRKSGQPLADGVSPSRGCDVSGPTAACNSVSKLDHFIASNGTLFNQKFHPSALKGDNGLMNLSSLIRSYFDQKGFHVQFNVIDKKILLAAQKNPEKYQDLIVRVAGYSAQFISLDKSIQNDIIARTEHVM | soluble |
| MISLVLGLLTSKLHYEQTYYTEIAKRARLYHNVVAQFTPFCIDSKTDLVSGLIYDTDTGKWKEQTFPIPSYIYDRYSFHEETDFEKAKSIIHSLHNRPSTTFLNNTLINLSELHDLFLTNKKLSPYIPKFEVATIQNIFKLLLKSKDIIIRPTNIHSKDNLYRVAYKNKTFHIDTVNEKYHTSLSIKRTDEFISWCKSNIRSSRYIVHTMLQPPNQLTYPLHIRTILQKNKEQTWNVIGQFIQKSSFPNQLLPSATDDDSLHSFSKIKYVLSSTGVQLLQDALHDIINEVFQTLDQSYSSLFELELSTIMDQKGAIWLMYVNTIPPYEQYIRHSDSLAEKIFHGPLKFSRFTP | not soluble |
| MISRVGADLGLSATAHVPRTDEPQKAKDFTTDQEVRWCPGCGDYVILATIRSFLPELGLRRENLMFVSGIGCSSRFPYYLDTYGLHSIHGRAPAIATGLAVTRPDLSVWVVTGDGDALSIGGNHLIHALRRNVNMTILLFNNRIYGLTKGQYSPTSEVGKVTKSTPLGSVDHPFNTLSLALGAEATFAARAMDSDRKGLTEVLRQAAAHRGTSFVEIYQDCPIFNDGSFDVLRKDGSEQRLIPLTHGEPIVFGGAGEYCVVRSGFGLKVVATADVDRDDIVVHDAHTDDPDYAYALSRLSDQDLTHTVTGVFRSVTRDTYDDMVRLQNEIAQEKDPVDDGSLQRLLTGHDTWTVE | not soluble |
| MISSNSSSTSLNVETDYPTNGKKPLKEGSVQLTSLSTLLSHHRYFFLYHETLIISKQKGACSYKLKEKLRLEKVWIASSNTADSFLIGWPFTNYLVHFRNTEEKDEWFELLSCCVQQCLRPLFTTISMEINVRGRKQTIRRRVDNGKKSGEIVVDTAGDLGLPHTSYQLTLSFGDNSHRQLQGPENVYVAIMSEIERQGTRLSESQKQALDTCPIANCRLILSTIKSTSGPSAKQLVNSIKKKVLTRTDSRSIFGKGLNGPTPPQPIMTIVDHLRMDGFDAEGIFRKSPKQSTFKELKCELDKGVVPDFHKYNTHVLASILKEYLRSIPGKILLSGNYELWMREIADEPNTEKKVSCCRALLSHLPTSHSILLANVLKLLNKISNSPSSKMNASSLSVCLAPSFLESPDPMEGGKKIPPLIEFLISHAAQVMPGFSTDNVFAIMTSPMVDHNANMVCSPAPSSSHSDDGGSSQKTPIIEELNDADDATSQSSLAESDLPDEPRGTSAHLETISEISEPPTNDERLVFSSSEDEDDDDEDELRVYRPKSSTSTSSCFARTSFVSETLKTSADDGDKGLNKETPRSPCLKRIHFQRTEAQHRNKEGNIKLDFEALKFHRPSVRKSSLEEVARKNSAEFFHHSREPSDAAVTPTPPKNGSTMRKESREEATQTADCGLPHISSNDDSDSRFPAFKSSSVAMLTEPYKSSSSSSSSTSSIPSDPAPRPYFLKEEYTSLANKPTVQVAPFSQEPSLKTINDRLNALRQNSILAQEVPQEPVMTSSRLRSEATKSLTNSPIMPRSYGGSLMQKDREEHSFVADDFYKASSRKPELQRSSSQRGLTSMNNNNNSTKQIYGARPSSLKTPRRFAGAGGVEACVGMDPLEINWSVSQLKTLFQDTKAPSIDTTYNMN | not soluble |
| MISSTKLSILALALVGAVLARPQFPGGPPPGMSAVPPPIAAVLPPETLARLEAIHADSSLSELEKHKAIDTIMVNLPEEVHDRIPPPPGFAQLPAEVQAQLKTIHRDKNLDFQERQAAIHGVLENLAPEFKRLLPPPPPGFPQRRQ | soluble |
| MISVMQQMINNDSPEDSKESITSVQQTPFFWPSAAAAIPSIQGESRSERESETGSSPQLAPSSTGMVMPGTAGMYGFGPSRMPTANEFGMMMNPVYTDFYQNPLASTGWYSYGQPYQFTANYSIPSLDGNLSDITIPTTAGSSAATTPNAAMHLPWAISHDGKKKRQPYKKDQISRLEYEYSVNQYLTNKRRSELSAQLMLDEKQVKVWFQVCYRQYSAESLEIINVNFYLMS | not soluble |
| MISVTFRQILGLVSLLCATWLYSQCRHIWLLAQDDFNEQFTNFLGEKWWSTDQLELCDDETKDTKWQKNDSICITYVYNMLPVDMEIISWAPTLVIYRNLMSPRQTASFLNFIEQRDLEIQKTSDFGTSIETTHRRANGSFIPPEDSNVTVEIKMQAQKRIPGLNLTVAEHFSALSYLPGGHYAVHYDYLDYRSKQDYDWWMNKTGNRIGTLIFVLKPAEKGGGTVFPSIGSTVRANAGDAFFWFNAQADEEKEMLSNHGGCPIYEGRKVIATIWIRAYNQRILPMAPAGSSIHASWLIPSLSNRFRPEMQTQSPVPN | not soluble |
| MITFKPTRNIDLIEAVGNHPDIIAGSNNGDGYDYKPECRYFEVNVHGQFGGIVYYQEIQPLTLDCHAMYLPEIRGFSKEIGLAFWRYILTNTTVQCVTSFAARKFRHGQMYCAMIGLKRVGTIKKYFKGVDDVTFYSATREELIDFLNHGR | not soluble |
| MITSYEATVVTTDDIVHEVNLEGKRIGYVIKTENKETPFTVVDIDGPSGNVKTLNDGVKKMCLVHIGKNLPAEKKAEFLATLIAMKLKGEI | not soluble |
